Consider seven molecules from PMC3401278 (ACS Chemical Biology, 2012).

Like-named read-outs stand apart in the source and are kept apart here. Where no end group is shown, it is not given here. The star is where a group is joined. FITC = O=C1OC2(c3ccc(O)cc3Oc3cc(O)ccc32)c2ccc(NC(=S)*)cc21; βAla = NCCC(=O)O

Assay [1] concerns the target T1, E. coli His6-LpxD (Escherichia coli, UniProt P21645). Description: Fluorescence polarization direct binding of FITC-labeled peptide to His6-LpxD. The note with it: at up to 180 μM LpxD.
Assay [2] has as its target T1, E. coli His6-LpxD. Kind of assay: biochemical. The assay is classed as binding.
In assay [3] the target is E. coli LpxA (Escherichia coli, UniProt P0A722). Description: Fluorescence polarization competition binding assay, LpxA.
Assay [4] has as its target LpxA (Escherichia coli, UniProt P0A722). Kind of assay: Continuous fluorescent acyltransferase inhibition assay. The assay is classed as biochemical, E. coli. The note with it: pH 7.5.
The target in assay [5] is T2, E. coli His6-LpxD (UDP-3-O-(R-3-hydroxyacyl)glucosamine N-acyltransferase) (E. coli, UniProt P21645 1-341).
T2 sequence (looked up): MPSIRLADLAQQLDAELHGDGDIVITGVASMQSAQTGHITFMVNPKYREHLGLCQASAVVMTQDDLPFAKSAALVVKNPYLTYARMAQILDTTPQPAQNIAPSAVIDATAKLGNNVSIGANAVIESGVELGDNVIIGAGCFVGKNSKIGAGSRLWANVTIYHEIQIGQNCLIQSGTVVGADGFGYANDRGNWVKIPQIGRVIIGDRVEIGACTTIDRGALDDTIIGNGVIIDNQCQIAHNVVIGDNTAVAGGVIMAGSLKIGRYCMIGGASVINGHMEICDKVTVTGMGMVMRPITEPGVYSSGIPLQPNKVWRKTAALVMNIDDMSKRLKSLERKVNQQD
Kind of assay: fluorescence polarisation.

Assay [6] concerns the target T3, E. coli LpxA (UDP-N-acetylglucosamine acyltransferase), native (E. coli, UniProt P0A722 1-262).
T3 sequence (looked up): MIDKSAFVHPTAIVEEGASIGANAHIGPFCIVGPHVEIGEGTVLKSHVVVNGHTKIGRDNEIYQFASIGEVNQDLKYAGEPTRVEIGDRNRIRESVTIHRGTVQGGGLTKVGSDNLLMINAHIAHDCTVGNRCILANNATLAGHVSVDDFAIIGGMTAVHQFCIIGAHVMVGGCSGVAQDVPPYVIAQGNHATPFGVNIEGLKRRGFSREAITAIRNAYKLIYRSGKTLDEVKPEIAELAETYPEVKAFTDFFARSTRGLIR
Description: fluorescence polarisation.

In assay [7] the target is T2, E. coli His6-LpxD …. Description: fluorescence polarisation. The source holds these as a separate data set.

Take β-alanyl-fluorescein: the “ΔmP with LpxD, fluorophore alone” value in assay [1] was ~ 26 mP.

Turning to `CC[C@H](C)[C@H](NC(=O)[C@@H]1CCCN1C(=O)[C@H](CC(=O)O)NC(=O)[C@H](CC(C)C)NC(=O)[C@H](CCSC)NC(=O)[C@H](Cc1c[nH]c2ccccc12)NC(=O)CNC(=O)[C@H](CO)NC(=O)[C@@H](N)CO)C(=O)N[C@@H](C)C(=O)NCC(=O)N[C@@H](CCCCN)C(=O)N[C@@H](Cc1c[nH]c2ccccc12)C(=O)N[C@@H](CO)C(=O)N[C@@H](CCCNC(=N)N)C(N)=O` [P920], the Kd in assay [2] is > 300 µM. For the molecule SENNFMLPLLPL-NH2 [RJPXD34], the Kd in assay [3] is > 300 µM. For the same molecule, in assay [4], the “LpxA IC50” value is “did not inhibit”.

B1: RJPXD33 (TNLYMLPKWDIP-NH2) (peptide)
peptide: TNLYMLPKWDIP-NH2
On to B1, for which the Kd in assay [5] turned out to be 6.5 ± 0.2 µM; in assay [6], 22 ± 2.1 µM.

B2: FITC-RJPXD33 (FITC-(βA)TNLYMLPKWDIP-NH2) (peptide)
peptide: {FITC-βAla}-TNLYMLPKWDIP-NH2
SMILES: CC[C@H](C)[C@H](NC(=O)[C@H](CC(=O)O)NC(=O)[C@H](Cc1c[nH]c2ccccc12)NC(=O)[C@H](CCCCN)NC(=O)[C@@H]1CCCN1C(=O)[C@H](CC(C)C)NC(=O)[C@H](CCSC)NC(=O)[C@H](Cc1ccc(O)cc1)NC(=O)[C@H](CC(C)C)NC(=O)[C@H](CC(N)=O)NC(=O)[C@@H](NC(=O)CCNC(=S)Nc1ccc2c(c1)C(=O)OC21c2ccc(O)cc2Oc2cc(O)ccc21)[C@@H](C)O)C(=O)N1CCC[C@H]1C(N)=O
In the case of B2, the Kd in assay [7] came to 0.6 ± 0.04 µM.

B3: RJPXD31 (QHFMVPDINDMQ-NH2) (peptide)
peptide: QHFMVPDINDMQ-NH2
As to B3, the Kd in assay [5] amounted to 41 ± 3 µM; in assay [6], 119 ± 9 µM.

B4: RJPXD34 (SENNFMLPLLPL-NH2) (peptide)
peptide: SENNFMLPLLPL-NH2
Molecule B4 had a Kd in assay [5] of 31 ± 1.5 µM.
